Test results as given in patent US8399206B2, “Methods for diagnosis, prognosis and methods of treatment” (Nodality, Inc., priority 2008, dated 2013).

B1: IL-27: interleukin-27 (protein, UniProt Q8NEV9 29-243; Q14213 21-229, looked up)
Interleukin-27 subunit alpha: FPRPPGRPQLSLQELRREFTVSLHLARKLLSEVRGQAHRFAESHLPGVNLYLLPLGEQLPDVSLTFQAWRRLSDPERLCFISTTLQPFHALLGGLGTQGRWTNMERMQLWAMRLDLRDLQRHLRFQVLAAGFNLPEEEEEEEEEEEEERKGLLPGALGSALQGPAQVSWPQLLSTYRLLHSLELVLSRAVRELLLLSKAGHSVWPLGFPTLSPQP
Interleukin-27 subunit beta: RKGPPAALTLPRVQCRASRYPIAVDCSWTLPPAPNSTSPVSFIATYRLGMAARGHSWPCLQQTPTSTSCTITDVQLFSMAPYVLNVTAVHPWGSSSSFVPFITEHIIKPDPPEGVRLSPLAERQLQVQWEPPGSWPFPEIFSLKYWIRYKRQGAARFHRVGPIEATSFILRAVRPRARYYVQVAAQDLTDYGELSDWSLPATATMSLGK
B2: FLT-3L: fms-like tyrosine kinase receptor-3 ligand (protein, UniProt P49771 27-235, looked up)
Fms-related tyrosine kinase 3 …: TQDCSFQHSPISSDFAVKIRELSDYLLQDYPVTVASNLQDEELCGGLWRLVLAQRWMERLKTVAGSKMQGLLERVNTEIHFVTKCAFQPPPSCLRFVQTNISRLLQETSEQLVALKPWITRQNFSRCLELQCQPDSSTLPPPWSPRPLEATAPTAPQPPLLLLLLLPVGLLLLAAAWCLHWQRTRRRTPRPGEQVPPVPSPQDLLLVEH

Experiments:
Assay type in all cases: cell-based, human
[1] = test system: AML BMMC leukemic blasts; test: SCNP modulated signaling assay, AML study No. 2 (BMMC, CR vs NR, clinical sub-groups)
Procedure: Two independent sets of cryopreserved samples were analyzed sequentially. The first set consisted of 35 peripheral blood mononuclear cell (PBMC) samples derived from AML patients. The second set consisted of 134 cryopreserved bone marrow mononuclear cell (BMMC) samples derived from AML patients. These samples were the same samples used in the previous examples. Sample inclusion criteria required collection prior to initiation of induction chemotherapy, AML classification by the French-American-British (FAB) criteria as M0 through M7 (excluding M3) and availability of clinical annotations.
In the first study, induction chemotherapy consisted of at least one cycle of standard cytarabine-based induction therapy (i.e. daunorubicin 60 mg/m^2×3 days, cytarabine 100-200 mg/m^2 continuous infusion×7 days); responses were measured after one cycle of induction therapy. In the second study, cytarabine (200 mg/m^2 to 3 g/m^2) was used in combination with an anthracycline (daunorubicin or idarubicin) or an additional anti-metabolite (e.g. fludarabine or troxacitabine), and sometimes, an experimental agent (Table 16). […] Standard clinical and laboratory criteria were used for defining complete response (CR) in both studies. […] Classified as “CRp,” these samples were included in the CR group for all primary analysis. The univariate analyses were also repeated with the CRp patients classified into the NR sample group for sensitivity analysis.
Cyropreserved samples were thawed at […], washed and centrifuged in PBS, 10% FBS and 2 mM EDTA. The cells were re-suspended, filtered to remove debris and washed in RPMI cell culture media, 1% FBS, then stained with Live/Dead Fixable Aqua Viability Dye to distinguish non-viable cells. The cells were then re-suspended in RPMI, 1% FBS, aliquoted to 100,000 cells/condition and rested for 1-2 hours at 37° C. prior to SCNP assays. Each condition included two to five phenotypic markers for cell population gating (eg, CD45, CD33), up to three intracellular stains or up to three additional surface markers or control antibodies for an eight-color flow cytometry assay.
Functional assays were performed as previously described. Cells were incubated with modulators (Table 18), at 37° C. for 3-15 minutes, fixed with 1.6% paraformaldehyde (final concentration) for 10 minutes at 37° C., pelleted and permeabilized with 100% ice-cold methanol and stored at −80° C.
Data was acquired using FACS DIVA software on both LSR II and CANTO II Flow Cytometers (BD). For all analyses, dead cells and debris were excluded by forward scatter (FSC), side scatter (SSC), and Amine Aqua Viability Dye measurement. Leukemic cells were identified as cells that lacked the characteristics of mature lymphocytes (CD45^++, CD33^−) and that fit the CD45 and CD33 versus right-angle light-scatter characteristics consistent with myeloid leukemia cells.
The median fluorescence intensity (MFI) was computed for each node from the fluorescence intensity levels for the cells in the myeloid population. The MFI values were then used to compute a variety of metrics by comparing them to baseline or background values, including the unmodulated condition, cellular autofluorescence and antibody isotype controls. The following metrics were computed: • 1. Basal MFI (“Basal”)=log2(MFIUnmodulated Stained)−log2(MFIGated Unstained (Autofluoresence)), designed to measure the basal levels of a certain protein under unmodulated conditions. • 2.

[2] = test system: FLT3-WT and FLT3-ITD AML leukemic blasts; test: SCNP signaling and apoptosis in FLT3-WT versus FLT3-ITD AML samples (Example 9)
Description: This example identifies intracellular signaling pathways associated with FLT3 ITD in two independent cohorts of diagnostic AML samples that serve as an improvement over current clinical tools in the identification of clinically meaningful altered FLT 3 and has implications for cohort selection in the development of FLT3 inhibitors. The two cohorts of data were further analyzed to investigate the differences in signaling between FLT-WT and FLT-ITD samples. The first cohort of data (“study 1”) comprised the 34 samples from University Health Network outlined in Table 16 and Table 19. The second cohort of data (“study 2”) comprised an 83 sample subset of MD Anderson Cancer Center data outlined in Table 16 (and Table 19). The 83 sample subset was selected based on known FLT3 mutation status. Both cohorts of data were used to investigate differences in FLT3 signaling between leukemic blasts and control data.
In order to further characterize wild-type FLT receptor signaling in AML, we compared FLT3L-induced signaling in the myeloblast population of control BMMC samples with FLT3L-induced signaling in the leukemic blast population of FLT3-WT AML samples.
Univariate analysis, unadjusted for multiple testing, was performed sequentially and independently on the two study cohorts in order to identify signaling nodes that distinguished with FLT3-ITD from FLT3-WT AML patient samples. […] Results from both studies include the AUC, Wilcoxon and t-test p-value for each node, and the number/mean value of the samples in the FLT3-ITD and FLT3-WT AML groups with common stratifying nodes summarized in FIG. 23. Although the majority of the discussion herein is directed to nodes that had similar reponses within the two cohorts of data, some differences were observed between the two cohorts of data. These differences may have been due to the different clinical characteristics of the two cohorts of data, specifically biases in the data from UHN.

[3] = test system: leukemic myeloblasts and healthy BMMb; test: SCNP in AML patients aged >60 years (ECOG E3999), FLT3-ITD vs FLT3-WT vs healthy BMMb (Example 12); details: FLT3-ITD blasts compared to BMMb
Description: Modulated single cell network profiling (SCNP) was used to evaluate the activation state of intracellular signaling molecules (i.e. nodes), including phosphorylated (p)-Akt, p-Erk, p-S6, p-Stat5 and cleaved-PARP, at baseline and after treatment with specific modulators [including cytokines (such as IL-27) growth factors (such as FLT3 ligand) and drugs (such a cytosine arabinoside)] in 7 healthy bone marrow mononuclear blasts (BMMb) and leukemic myeloblasts, characterized for FLT3 receptor mutation status, from 44 AML patients (38 FLT-WT and 6 FLT3-ITD), aged>60 years (ECOG trial E3999). A total of 64 node-metrics were analyzed.

[4] = Study No. 2, all patients, CR samples
[5] = Study No. 2, all patients, NR samples

Molecule | Mean Value of CRs, p-Stat1 Total Phospho [1, 4] | Mean Value of CRs, p-Stat3 Total Phospho [1, 4] | Mean Value of CRs, p-Stat3 Fold ([1]; Study No. 2, all patients, CR samples, negative = down regulation) | Mean Value of NRs, p-Stat1 Total Phospho [1, 5] | Mean Value of NRs, p-Stat3 Fold [1, 5] | Mean Value of NRs, p-Stat3 Total Phospho [1, 5] | IL-27 response, NR vs CR ([1]; patients younger than 60 years old) | responsiveness to IL-27 stimulation ([2]; FLT3-ITD samples) | IL-27-induced p-Stat responses ([2]; FLT3-WT samples) | IL-27 induced activation of the Jak/Stat pathway [3] | Flt3L induced p-Akt and p-Erk ([1]; patients over age 60 or with secondary AML lacking response to induction chemotherapy) | H2O2 and FLT3L responses, NR vs CR ([1]; patients younger than 60 years old (so in the source)) | FLT3L-induced PI3K and MAPK pathway activation ([2]; FLT3-ITD samples compared to FLT3-WT samples) | FLT3L-induced signaling at 15 minutes ([2]; FLT3-WT AML samples) | range of FLT3L-induced S6 signaling ([2]; FLT3-WT AML samples) | FLT3L-induced p-Akt and p-S6 ([2]; FLT3-WT AML samples, early time points (4 minutes, 10 minutes)) | FLT3 ligand-induced pathway activation [3]
B1 | 1.66 | 1.88 | 0.22 | 2.63 | 0.58 | 2.43 | NRs have higher IL-27 response than CRs | minimal responsiveness | wide range of p-Stat responses | minimal IL-27 induced activation of the Jak/Stat pathway | – | – | – | – | – | – | –
B2 | – | – | – | – | – | – | – | – | – | – | increased Flt3L induced p-Akt and p-Erk | NRs have higher H2O2 and FLT3L responses than CRs | lower levels of induced and total PI3K and MAPK pathway activation | sustained p-Erk, p-CREB and p-Akt activation | wide range of S6 signaling | increased levels of p-Akt and p-S6 | decreased FLT3 ligand-induced activation of P13K and Raf/Ras/Erk pathways
